Source: article PMC2605961
Numbering of substitutions follows the chain as printed.

Key:
Assay in all cases: EMSA
[1] = biological target: T1, His-PRH N187A (human, UniProt Q03014 7-270, N187A)
T1 sequence: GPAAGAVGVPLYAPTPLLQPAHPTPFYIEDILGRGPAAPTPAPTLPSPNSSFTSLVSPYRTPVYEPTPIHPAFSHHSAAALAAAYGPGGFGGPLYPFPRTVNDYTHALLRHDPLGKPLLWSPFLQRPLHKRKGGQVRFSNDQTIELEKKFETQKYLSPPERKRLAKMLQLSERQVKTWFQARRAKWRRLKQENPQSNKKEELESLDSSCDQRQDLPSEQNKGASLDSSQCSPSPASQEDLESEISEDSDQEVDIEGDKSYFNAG

[2] = biological target: T2, His-PRH R188A,R189A (human, UniProt Q03014 7-270, R188A;R189A)
T2 sequence: T1 sequence with A181N, R182A, R183A

[3] = biological target: T3, His-PRH F32E (human, UniProt Q03014 7-270, F32E)
T3 sequence: T1 sequence with F26E, A181N

[4] = biological target: T4, His-PRH (wild type) (human, UniProt Q03014 7-270)
T4 sequence: T1 sequence with A181N

B1: PRH-binding site oligonucleotide (dsDNA)
DNA 1: GCTTCTGGGAAGCAATTAAAAAATGGCTCGAGCT
DNA 2: CGAGCCATTTTTTAATTGCTTCCCAGA
binding result [1]: no binding
binding result [2]: no binding
binding result [3]: binds
binding result [4]: binds
